Publication PMC9638933

What was measured:
[1] = target: Kucore;POL (Mycobacterium …, UniProt P9WKD9;P9WNV3 1-238;1-287, |); assay: EMSA; supershift; EMSA: 50 mM Tris-HCl pH 8.0, 50 mM NaCl, 1 mM DTT, 5 mM MgCl2, 4% glycerol, 0.025 mg/ml BSA, 10 nM DNA, 30 C 20 min; FP: 10 mM Tris-HCl pH 8, 10 mM NaCl, 10% glycerol, 1 mM TCEP, 50 nM DNA, 30 C; ternary EMSA: 20 mM Tris-HCl pH 8.0, 5 mM MgCl2, 5% glycerol, 37 C; bridging: 20 mM Tris-HCl pH 7.5, 50 mM KCl, 5 mM EDTA, 1 mM DTT, 5% glycerol, 40 ug/ml BSA, room temperature; conditions: protein: recombinant;recombinant; tags: His (Ni-NTA purified; pMCSG7);His (Ni-NTA purified); chain copies: 2;1; label: 5' 6-FAM on strand 1; blunt
[2] = target: Kumin;LIG (Mycobacterium …, UniProt P9WKD9;P9WNV3 1-259;454-759, |); assay: as above; conditions: protein: recombinant;recombinant; tags: His (Ni-NTA purified; pMCSG7);His (Ni-NTA purified); chain copies: 2;1; label: 5' 6-FAM on strand 1; blunt
Chain of Kumin;LIG (P9WKD9 1-259, chain 1 of 2): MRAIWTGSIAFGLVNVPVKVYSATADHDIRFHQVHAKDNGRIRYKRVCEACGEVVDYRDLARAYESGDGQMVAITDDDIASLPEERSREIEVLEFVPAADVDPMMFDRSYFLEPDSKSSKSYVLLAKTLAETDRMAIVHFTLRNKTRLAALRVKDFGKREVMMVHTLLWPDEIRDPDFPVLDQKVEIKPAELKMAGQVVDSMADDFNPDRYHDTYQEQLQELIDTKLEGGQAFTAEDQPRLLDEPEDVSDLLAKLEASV
Chain of Kumin;LIG (P9WNV3 454-759, chain 2 of 2): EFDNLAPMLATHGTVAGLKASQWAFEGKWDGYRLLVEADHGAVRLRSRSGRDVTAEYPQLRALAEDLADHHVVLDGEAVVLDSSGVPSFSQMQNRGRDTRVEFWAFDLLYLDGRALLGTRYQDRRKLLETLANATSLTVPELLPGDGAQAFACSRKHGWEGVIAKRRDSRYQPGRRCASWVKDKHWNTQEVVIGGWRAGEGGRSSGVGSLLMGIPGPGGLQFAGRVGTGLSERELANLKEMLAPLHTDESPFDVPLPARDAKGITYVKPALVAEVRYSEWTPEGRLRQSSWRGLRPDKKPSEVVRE

[3] = target: KuWT;POL (Mycobacterium …, UniProt P9WKD9;P9WNV3 1-273;1-287, |); assay: as above; conditions: protein: recombinant;recombinant; tags: His (Ni-NTA purified; pMCSG7);His (Ni-NTA purified); chain copies: 2;1; label: 5' 6-FAM on strand 1; blunt
Chain of KuWT;POL (P9WNV3 1-287, one chain of several): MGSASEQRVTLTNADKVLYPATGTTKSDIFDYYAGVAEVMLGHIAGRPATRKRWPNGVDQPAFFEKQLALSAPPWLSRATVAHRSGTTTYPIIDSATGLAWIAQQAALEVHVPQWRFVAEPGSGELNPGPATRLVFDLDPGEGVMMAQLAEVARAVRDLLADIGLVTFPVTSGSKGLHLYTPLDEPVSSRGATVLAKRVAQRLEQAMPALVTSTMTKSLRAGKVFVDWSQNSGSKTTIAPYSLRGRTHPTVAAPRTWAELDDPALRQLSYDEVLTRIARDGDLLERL

[4] = target: KuWT;LIG (Mycobacterium …, UniProt P9WKD9;P9WNV3 1-273;454-759, |); assay: as above; conditions: protein: recombinant;recombinant; tags: His (Ni-NTA purified; pMCSG7);His (Ni-NTA purified); chain copies: 2;1; label: 5' 6-FAM on strand 1; blunt
Chain of KuWT;LIG (P9WKD9 whole entry, chain 1 of 2): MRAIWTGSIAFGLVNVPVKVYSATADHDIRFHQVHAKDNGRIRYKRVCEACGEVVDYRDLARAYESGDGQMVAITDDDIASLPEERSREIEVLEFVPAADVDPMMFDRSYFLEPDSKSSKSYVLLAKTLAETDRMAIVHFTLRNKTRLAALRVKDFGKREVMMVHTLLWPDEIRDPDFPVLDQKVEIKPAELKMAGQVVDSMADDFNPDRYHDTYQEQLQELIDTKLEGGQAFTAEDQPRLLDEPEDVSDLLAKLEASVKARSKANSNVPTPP
Chain of KuWT;LIG (P9WNV3 454-759, chain 2 of 2): as the sequence (P9WNV3 454-759, chain 2 of 2) above

[5] = target: Kumin;LigD (Mycobacterium …, UniProt P9WKD9;P9WNV3 1-259;1-759, |); assay: EMSA; 10 uM Ku, 1 uM LigD; supershift; EMSA: 50 mM Tris-HCl pH 8.0, 50 mM NaCl, 1 mM DTT, 5 mM MgCl2, 4% glycerol, 0.025 mg/ml BSA, 10 nM DNA, 30 C 20 min; FP: 10 mM Tris-HCl pH 8, 10 mM NaCl, 10% glycerol, 1 mM TCEP, 50 nM DNA, 30 C; ternary EMSA: 20 mM Tris-HCl pH 8.0, 5 mM MgCl2, 5% glycerol, 37 C; bridging: 20 mM Tris-HCl pH 7.5, 50 mM KCl, 5 mM EDTA, 1 mM DTT, 5% glycerol, 40 ug/ml BSA, room temperature; conditions: protein: recombinant;recombinant; tags: His (Ni-NTA purified; pMCSG7);His (Ni-NTA purified; pMCSG7); chain copies: 2;1; label: 5' 6-FAM on strand 1; blunt
Chain of Kumin;LigD (P9WKD9 1-259, chain 1 of 2): as the sequence (P9WKD9 1-259, chain 1 of 2) above
Chain of Kumin;LigD (P9WNV3 whole entry, chain 2 of 2): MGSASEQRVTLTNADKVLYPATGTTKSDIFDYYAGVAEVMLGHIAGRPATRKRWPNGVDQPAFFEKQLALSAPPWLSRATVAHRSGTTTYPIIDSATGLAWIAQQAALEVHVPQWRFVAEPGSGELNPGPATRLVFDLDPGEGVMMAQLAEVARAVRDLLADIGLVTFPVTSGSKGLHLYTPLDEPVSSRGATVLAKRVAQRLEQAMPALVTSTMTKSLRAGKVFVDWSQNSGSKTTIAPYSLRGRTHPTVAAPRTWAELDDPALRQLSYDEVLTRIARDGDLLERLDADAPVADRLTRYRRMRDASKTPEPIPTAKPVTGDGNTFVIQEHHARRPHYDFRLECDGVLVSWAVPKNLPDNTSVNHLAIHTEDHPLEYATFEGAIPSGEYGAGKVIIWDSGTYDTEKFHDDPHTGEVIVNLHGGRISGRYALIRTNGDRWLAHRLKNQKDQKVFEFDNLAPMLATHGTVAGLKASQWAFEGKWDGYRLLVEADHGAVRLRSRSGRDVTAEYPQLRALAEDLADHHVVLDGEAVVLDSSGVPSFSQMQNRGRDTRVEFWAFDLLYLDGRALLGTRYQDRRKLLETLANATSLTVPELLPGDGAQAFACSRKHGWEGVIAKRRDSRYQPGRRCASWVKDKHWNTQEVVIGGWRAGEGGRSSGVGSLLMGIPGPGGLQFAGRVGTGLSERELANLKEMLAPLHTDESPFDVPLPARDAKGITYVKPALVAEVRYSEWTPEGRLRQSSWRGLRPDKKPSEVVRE

[6] = target: KuWT;LigD (Mycobacterium …, UniProt P9WKD9;P9WNV3 1-273;1-759, |); assay: as above; conditions: protein: recombinant;recombinant; tags: His (Ni-NTA purified; pMCSG7);His (Ni-NTA purified; pMCSG7); chain copies: 2;1; label: 5' 6-FAM on strand 1; blunt
Chain of KuWT;LigD (P9WKD9 whole entry, chain 1 of 2): as the sequence (P9WKD9 whole entry, chain 1 of 2) above
Chain of KuWT;LigD (P9WNV3 whole entry, chain 2 of 2): as the sequence (P9WNV3 whole entry, chain 2 of 2) above

[7] = target: Kucore;LigD (Mycobacterium …, UniProt P9WKD9;P9WNV3 1-238;1-759, |); assay: as above; conditions: protein: recombinant;recombinant; tags: His (Ni-NTA purified; pMCSG7);His (Ni-NTA purified; pMCSG7); chain copies: 2;1; label: 5' 6-FAM on strand 1; blunt
Chain of Kucore;LigD (P9WKD9 1-238, chain 1 of 2): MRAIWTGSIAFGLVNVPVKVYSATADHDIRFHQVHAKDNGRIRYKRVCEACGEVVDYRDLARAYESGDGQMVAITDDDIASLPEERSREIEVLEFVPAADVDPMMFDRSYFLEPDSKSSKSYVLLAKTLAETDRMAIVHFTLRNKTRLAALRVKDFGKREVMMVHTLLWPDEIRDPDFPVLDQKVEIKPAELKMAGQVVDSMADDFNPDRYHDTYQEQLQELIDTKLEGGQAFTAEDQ
Chain of Kucore;LigD (P9WNV3 whole entry, chain 2 of 2): as the sequence (P9WNV3 whole entry, chain 2 of 2) above

Measured: binding result

B1: 40 bp dsDNA (dsDNA)
DNA 1: CAGGGTAAGTGTGGAGGTGTAGGGAAGGGAATGTTGTCTG
DNA 2: CAGACAACATTCCCTTCCCTACACCTCCACACTTACCCTG
binds: all assays above
